{"source": "paper PMC10269693", "tested_on": "CN[C@@H]1[C@H](O)[C@H](NC)[C@H]2O[C@@]3(O)C(=O)C[C@@H](C)O[C@H]3O[C@@H]2[C@H]1O", "test": "purified protein", "settings": "5 mM ATP, 10 mM MgCl2, 50 mM HEPES pH 7.5, 37°C", "data": [{"substance": "ANT(9)-Ib (Enterococcus faecalis)", "values": [{"measurement": "Km", "value": "33.56 ± 8.1", "unit": "µM"}, {"measurement": "kcat", "value": "2.6 ± 0.2", "unit": "s⁻¹"}, {"measurement": "kcat/Km", "value": "83000 ± 21000", "unit": "M⁻¹ s⁻¹"}]}]}
